From publication PMC4980433 (Molecular Cell, 2016) come the findings set out here.

The chains are these.
B1: TNKS SAM domain (1,018-1,093), wild type [human] / itself (parent)
chain: ERKEGEVAGLDMNISQFLKSLGLEHLRDIFETEQITLDVLADMGHEELKEIGINAYGHRHKLIKGVERLLGGQQGT

In the assay the parent is B1. Description: SEC-MALS. Conditions: with itself; 0.5 mM; n = 2.
For the variant ERKEGEVAGLDMNISQFLKSLGLEHLRDIFETEQITLDWLADMGHEELKEIGINAYGHRHKLIKGVERLLGGQQGT [chain 1 V39W], the screen value was determined as 10.6 kDa.

In the case of ERKEGEVAGLDMNISQFLKSLGLEHLRDIFETEQITLDVLADMGHEELKEIGINAAGHRHKLIKGVERLLGGQQGT [chain 1 Y56A], the screen value is 10.4 kDa.

Take ERKEGEVAGLDMNISQFLKSLGLEHLRDIFETEQITLDWLADMGHEELKEIGINAAGHRHKLIKGVERLLGGQQGT [chain 1 V39W Y56A]: the screen value is 9.3 kDa.
